Source: patent US20060110396A1

Target: Human CDw52 (human) (UniProt P31358)
Assay: cell-based or functional assay

CAMPATH (antibody)
51Cr release assay, lysis (apoptosis) of macrophage-cell line THP-1 after 18 h: 70% | 51Cr release assay, lysis (apoptosis) of macrophage-cell line U-937 after 18 h: 55%
